Data reported in patent US20110206658A1 (published 2011).

T1: human CD79b (TAHO5) (human, UniProt P40259 29-229)
T1 sequence: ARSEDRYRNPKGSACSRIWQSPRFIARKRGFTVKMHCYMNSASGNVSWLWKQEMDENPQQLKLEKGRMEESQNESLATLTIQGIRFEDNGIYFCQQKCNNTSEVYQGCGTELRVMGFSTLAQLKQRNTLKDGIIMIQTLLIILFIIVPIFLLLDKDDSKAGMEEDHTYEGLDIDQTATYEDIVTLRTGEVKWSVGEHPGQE

T2: cynomolgus CD79b (TAHO40) (cynomolgus monkey)
T2 chain: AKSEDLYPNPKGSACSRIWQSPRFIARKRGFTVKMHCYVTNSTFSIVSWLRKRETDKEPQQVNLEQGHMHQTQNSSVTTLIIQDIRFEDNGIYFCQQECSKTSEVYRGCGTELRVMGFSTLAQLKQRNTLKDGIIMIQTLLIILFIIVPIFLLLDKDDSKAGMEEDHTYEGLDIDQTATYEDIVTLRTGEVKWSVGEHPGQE

B1: anti-cyno CD79b (10D10)-SMCC-DM1 (antibody, V domains shown)
VH: EVQLQESGPGLVKPSQSLSLTCTVTGYSITSDYAWNWIRQFPGNKLEWMGNIWYSGSTTYNPSLKSRISITRDTSKNQFFLQLNSVTSEDTATYYCSRMDFWGQGTTLTVSS
VL: DIVLTQSPPSLAVSLGQRATISCRASESVDSYGKTFMHWHQQKPGQPPKLLIYRVSNLESGIPARFSGSGSRTDFTLTINPVEADDVATYYCQQSNEDPFTFGGGTKLEIKR
modifications: DM1 linked through SMCC to the epsilon-amino group of lysines; drug to antibody ratio typically 3 to 4
B2: anti-cyno CD79b (10D10)-MC-MMAF (antibody, V domains shown)
VH: EVQLQESGPGLVKPSQSLSLTCTVTGYSITSDYAWNWIRQFPGNKLEWMGNIWYSGSTTYNPSLKSRISITRDTSKNQFFLQLNSVTSEDTATYYCSRMDFWGQGTTLTVSS
VL: DIVLTQSPPSLAVSLGQRATISCRASESVDSYGKTFMHWHQQKPGQPPKLLIYRVSNLESGIPARFSGSGSRTDFTLTINPVEADDVATYYCQQSNEDPFTFGGGTKLEIKR
modifications: MMAF linked through the cysteine by the maleimidocaproyl (MC) linker; sites and load not stated

Legend:
human CD79b (TAHO5) = molecular target: T1, human CD79b (TAHO5); assay: cell-based or functional assay
[1] = molecular target: T2, cynomolgus CD79b (TAHO40); assay: cell-based or functional assay

Binder | IC50 of tumor cell killing (CellTiter-Glo), non-transfected BJAB cells (human CD79b (TAHO5)) [nM] | IC50 of tumor cell killing (CellTiter-Glo), BJAB-cyno CD79b cells [1] [nM]
B1 | 10 | 0.33
B2 | 694 | 0.07
